Laboratory results: paper PMC7793260, “MreC and MreD balance the interaction between the elongasome proteins PBP2 and RodA” (PLoS Genetics, 2020)

T1: RodA (wild type), fused to mCherry or to mKO (E. coli, UniProt P0ABG7 1-370)
T1 construct: RodA, peptidoglycan glycosyltransferase of the E. coli elongasome; wild-type rodA gene; mCh-RodA in all others; also called mCh-RodA; mKO-RodA; source: E. coli LMC500, expressed from plasmid (15 uM IPTG), in fixed cells; not shown: mCherry (acceptor construct, pSAV047-RodA) or mKO (donor construct, pXL56), N-terminal, kept
T1 sequence (looked up): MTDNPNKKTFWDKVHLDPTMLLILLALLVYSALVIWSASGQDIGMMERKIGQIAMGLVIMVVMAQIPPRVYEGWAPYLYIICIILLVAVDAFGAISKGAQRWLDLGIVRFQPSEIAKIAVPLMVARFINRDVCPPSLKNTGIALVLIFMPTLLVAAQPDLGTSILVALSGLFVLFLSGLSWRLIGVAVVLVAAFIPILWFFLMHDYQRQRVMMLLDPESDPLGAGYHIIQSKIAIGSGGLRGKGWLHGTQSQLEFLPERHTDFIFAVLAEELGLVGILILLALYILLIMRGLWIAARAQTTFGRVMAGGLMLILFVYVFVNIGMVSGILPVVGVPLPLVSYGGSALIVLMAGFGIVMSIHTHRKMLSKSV

T2: mKO-PBP2^L61R (E. coli, UniProt P0AD65 1-633, L61R)
T2 construct: PBP2 of E. coli with L61R (hyperactive variant); made from pWA004 by mutagenesis PCR; also called hyperactive PBP2^L61R; source: E. coli LMC500, expressed from plasmid (15 uM IPTG), in fixed cells; not shown: mKO, N-terminal, kept
T2 sequence (looked up): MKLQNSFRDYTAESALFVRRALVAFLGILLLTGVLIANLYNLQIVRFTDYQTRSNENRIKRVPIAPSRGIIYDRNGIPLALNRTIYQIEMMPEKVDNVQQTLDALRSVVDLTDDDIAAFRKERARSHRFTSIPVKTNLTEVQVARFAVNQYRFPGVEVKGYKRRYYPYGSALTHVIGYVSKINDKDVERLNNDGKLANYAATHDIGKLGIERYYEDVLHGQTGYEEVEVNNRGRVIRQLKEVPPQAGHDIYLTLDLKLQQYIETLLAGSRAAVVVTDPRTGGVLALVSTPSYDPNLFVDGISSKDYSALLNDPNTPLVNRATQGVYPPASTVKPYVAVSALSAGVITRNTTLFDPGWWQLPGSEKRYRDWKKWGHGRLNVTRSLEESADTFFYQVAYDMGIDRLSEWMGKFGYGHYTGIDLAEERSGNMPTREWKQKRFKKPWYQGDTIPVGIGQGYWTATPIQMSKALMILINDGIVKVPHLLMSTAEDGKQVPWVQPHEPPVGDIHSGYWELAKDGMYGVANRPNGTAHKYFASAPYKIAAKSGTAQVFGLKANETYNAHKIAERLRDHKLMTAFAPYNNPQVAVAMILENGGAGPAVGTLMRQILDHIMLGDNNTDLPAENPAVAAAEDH

B1: PBP2 (wild type), fused to mKO or to mCherry (enzyme, E. coli, UniProt P0AD65 1-633, looked up)
chain: MKLQNSFRDYTAESALFVRRALVAFLGILLLTGVLIANLYNLQIVRFTDYQTRSNENRIKLVPIAPSRGIIYDRNGIPLALNRTIYQIEMMPEKVDNVQQTLDALRSVVDLTDDDIAAFRKERARSHRFTSIPVKTNLTEVQVARFAVNQYRFPGVEVKGYKRRYYPYGSALTHVIGYVSKINDKDVERLNNDGKLANYAATHDIGKLGIERYYEDVLHGQTGYEEVEVNNRGRVIRQLKEVPPQAGHDIYLTLDLKLQQYIETLLAGSRAAVVVTDPRTGGVLALVSTPSYDPNLFVDGISSKDYSALLNDPNTPLVNRATQGVYPPASTVKPYVAVSALSAGVITRNTTLFDPGWWQLPGSEKRYRDWKKWGHGRLNVTRSLEESADTFFYQVAYDMGIDRLSEWMGKFGYGHYTGIDLAEERSGNMPTREWKQKRFKKPWYQGDTIPVGIGQGYWTATPIQMSKALMILINDGIVKVPHLLMSTAEDGKQVPWVQPHEPPVGDIHSGYWELAKDGMYGVANRPNGTAHKYFASAPYKIAAKSGTAQVFGLKANETYNAHKIAERLRDHKLMTAFAPYNNPQVAVAMILENGGAGPAVGTLMRQILDHIMLGDNNTDLPAENPAVAAAEDH
notes: PBP2, peptidoglycan transpeptidase of the E. coli elongasome, wild type; mKO-PBP2 in all others; also called mKO-PBP2^WT; mKO-PBP2; source: E. coli LMC500, expressed from plasmid (15 uM IPTG), in fixed cells; not shown: mKO (donor construct, pWA004) or mCherry (acceptor construct), N-terminal, kept

Assays:
Test in all cases: FRET or BRET; two-plasmid spectral FRET in E. coli LMC500 cells; mCherry fusion as acceptor, mKO fusion as donor; Gb4 medium, steady state at 28 C, 15 uM IPTG for two mass doublings, FAGA-fixed; acceptor FRET efficiency (EfA) by spectral unmixing
[1] = biological target: T1, RodA (wild type), fused to mCherry or …; details: partners not purified
[2] = biological target: B1; details: partners not purified
[3] = biological target: the molecule itself
mKO-PBP2^L61R = biological target: T2, mKO-PBP2^L61R; details: partners not purified

| Binder | EfA (acceptor FRET efficiency) [2] [%] | other results |
| --- | --- | --- |
| mCh-MreB^SW (natural protein, E. coli, UniProt P0A9X4 1-347, looked up, MreB of E. coli with mCherry inserted inside the chain (sandwich fusion); also called sandwich fusion of MreB-mCherry-MreB; source: E. coli LMC500, expressed from plasmid (15 uM IPTG), in fixed cells) MLKKFRGMFSNDLSIDLGTANTLIYVKGQGIVLNEPSVVAIRQDRAGSPKSVAAVGHDAKQMLGRTPGNIAAIRPMKDGVIADFFVTEKMLQHFIKQVHSNSFMRPSPRVLVCVPVGATQVERRAIRESAQGAGAREVFLIEEPMAAAIGAGLPVSEATGSMVVDIGGGTTEVAVISLNGVVYSSSVRIGGDRFDEAIINYVRRNYGSLIGEATAERIKHEIGSAYPGDEVREIEVRGRNLAEGVPRGFTLNSNEILEALQEPLTGIVSAVMVALEQCPPELASDISERGMVLTGGGALLRNLDRLLMEETGIPVVVAEDPLTCVARGGGKALEMIDMHGGDLFSEE | – | EfA (acceptor FRET efficiency) [1]: 7.2% |
| mCh-RodA^Q207R (enzyme, E. coli, UniProt P0ABG7 1-370, looked up) MTDNPNKKTFWDKVHLDPTMLLILLALLVYSALVIWSASGQDIGMMERKIGQIAMGLVIMVVMAQIPPRVYEGWAPYLYIICIILLVAVDAFGAISKGAQRWLDLGIVRFQPSEIAKIAVPLMVARFINRDVCPPSLKNTGIALVLIFMPTLLVAAQPDLGTSILVALSGLFVLFLSGLSWRLIGVAVVLVAAFIPILWFFLMHDYRRQRVMMLLDPESDPLGAGYHIIQSKIAIGSGGLRGKGWLHGTQSQLEFLPERHTDFIFAVLAEELGLVGILILLALYILLIMRGLWIAARAQTTFGRVMAGGLMLILFVYVFVNIGMVSGILPVVGVPLPLVSYGGSALIVLMAGFGIVMSIHTHRKMLSKSV | 12.7 | – |
| mCh-RodA^R109A (enzyme, E. coli, UniProt P0ABG7 1-370, looked up) MTDNPNKKTFWDKVHLDPTMLLILLALLVYSALVIWSASGQDIGMMERKIGQIAMGLVIMVVMAQIPPRVYEGWAPYLYIICIILLVAVDAFGAISKGAQRWLDLGIVAFQPSEIAKIAVPLMVARFINRDVCPPSLKNTGIALVLIFMPTLLVAAQPDLGTSILVALSGLFVLFLSGLSWRLIGVAVVLVAAFIPILWFFLMHDYQRQRVMMLLDPESDPLGAGYHIIQSKIAIGSGGLRGKGWLHGTQSQLEFLPERHTDFIFAVLAEELGLVGILILLALYILLIMRGLWIAARAQTTFGRVMAGGLMLILFVYVFVNIGMVSGILPVVGVPLPLVSYGGSALIVLMAGFGIVMSIHTHRKMLSKSV | 12.5 | – |
| B1 | – | EfA (acceptor FRET efficiency) [3]: 9.2% |
| mCh-MreC (natural protein, E. coli, UniProt P16926 1-367, looked up) MKPIFSRGPSLQIRLILAVLVALGIIIADSRLGTFSQIRTYMDTAVSPFYFVSNAPRELLDGVSQTLASRDQLELENRALRQELLLKNSELLMLGQYKQENARLRELLGSPLRQDEQKMVTQVISTVNDPYSDQVVIDKGSVNGVYEGQPVISDKGVVGQVVAVAKLTSRVLLICDATHALPIQVLRNDIRVIAAGNGCTDDLQLEHLPANTDIRVGDVLVTSGLGGRFPEGYPVAVVSSVKLDTQRAYTVIQARPTAGLQRLRYLLLLWGADRNGANPMTPEEVHRVANERLMQMMPQVLPSPDAMGPKLPEPATGIAQPTPQQPATGNAATAPAAPTQPAANRSPQRATPPQSGAQPPARAPGGQ | 5.1 | EfA (acceptor FRET efficiency) (mKO-PBP2^L61R): 5.3% |
